# Tests used:
# [1] = tested on: yeast cells; assay: Uptake of CBD into yeast cells; format: cell-based, Saccharomyces cerevisiae (strain Y1HGold); settings: 0.5 mM CBD, three hour incubation, FIG. 3A and FIG. 4
# Method: (§1) The genes were expressed in yeast and tobacco. For yeast, the ABC and PTR Transporter genes were synthesized by the TWIST Co, cloned and expressed (individually) in the yeast expression vector pESC-URA (Agilent Technologies) for expression under the yeast native gal-10 promoter. Competent Saccharomyces cerevisiae (strain Y1HGold, CloneTech) cells were prepared, transformed by each of the resulting vector and selected on yeast synthetic media lacking Uracil as previously described [GietzR. D., Methods Mol. Biol. (2014) 1205:1-12].
# An additional strategy for determining transporter function is to measure the amount of exogenous CBD taken up and incorporated into the cells.
# Transformed yeast cells were grown on URA-glucose broth at 30° C. at 200 RPM, and after 24 hours 100 μl was used to inoculate 5 ml of URA-galactose broth in the same conditions till OD600 of […]. The yeast was incubated with 0.5 mM CBD for 2-8 hours in 30° C. at 100 RPM, then centrifuged at 15000 g for 1 minute, and washed twice with 1 ml distilled water. The pellet was weighed and underwent HPLC analysis to determine the pellet's CBD content. The pellet was extracted in 1 ml methanol, and following centrifugation and filter was analyzed by HPLC using a diode-array detector and CBD was quantified against a commercial standard.
# [2] = tested on: yeast cells; assay: Yeast growth (turbidity A600) in the presence of CBD; format: cell-based, Saccharomyces cerevisiae (strain Y1HGold); settings: 0.5 mM CBD, 7-12 hours, FIG. 2
# Method: as §1
# An alternative method is to measure the yeast growth as a function of turbidity. Transformed yeast cells were grown on URA-glucose broth at 30° C. at 200 RPM, and after 24 hours 100 μl was used to inoculate 5 ml of URA-galactose broth in the same conditions till O.D.600 of 1.5. The yeast was further diluted to OD600=0.05 with 10 ml URA-galactose, and divided into two 5 ml aliquots into separate 50 ml falcon tubes. The first falcon (control) was added 78 μl acetonitrile (the solvent that the CBD was dissolved in), and the second one was added 78 μl CBD solution in acetonitrile (final CBD concentration=0.5 mM). […]
# [3] = Terpene synthase activity assay with GPP; format: biochemical; settings: TPS expressed in E. coli; 10 μM GPP, overnight at 30° C., SPME GC-MS
# Method: Putative terpene synthase genes were synthesized by the TWIST Co., and cloned into Novagen pET-28a(+) with a 6×His tag at its' N-terminus. The recombinant plasmid was then sequenced for authentication and transformed into BL21(DE3) pLysS and pLysE strains of E. coli (Agilent Technologies) for heterologous expression. An overnight culture was used to inoculate a 20-200 mL culture, induced with 0.1 mM IPTG at an OD 600 nm >0,8 for initiation of recombinant protein translation then incubated at 18° C. and 250 RPM overnight. The cells were collected by centrifugation and the recombinant enzymes were extracted either as a crude extract or purified on a Ni-NTA agarose resin as previously described [Gonda I. et al., The Plant Journal (2013) 61, 458-472].
# To determine the terpene synthase catalytic activity, reaction mixtures containing 100 μl of protein extract or purified protein were incubated overnight at 30° C. with either 10 μM geranyl diphosphate (GPP) or farnesyl diphosphate (FPP), in a final volume of 200 μl using a buffer containing 50 mM bis-tris, pH 6.9, 1 mM DTT, 10% (v/v) glycerol, 0.1 mM of MnCl2 and 10 mM of MgCl2. The volatiles produced were extracted by solid-phase microextraction (SPME) according to the methodology previously described [Iijima Y. et al., Plant Physiol (2004) 136: 3724-3736]. As controls, reactions were carried out without the cofactors MnCl2 and MgCl2, or protein extracts were heat inactivated by incubation at 100° C. for 5 minutes, or a short peptide product of an empty pET100 vector was utilized.
# For solid-phase microextraction (SPME) analysis, a 57298-U SPME fiber assembly Divinylbenzene/Carboxen/Polydimethylsiloxane (DVB/CAR/PDMS, Supelco) needle size 23 ga, StableFlex, was used with an autosampler and analyzed by GC-MS as previously described [Davidovich-Rikanati R. et al., Nature Biotech (2007) 25:899-901; Davidovich-Rikanati R. et al., Plant J (2008) 56:228-238]. The SPME fiber were adsorbed for 30 min. by automatic HS-SPME at 50° C. followed by injection of the fiber into a GC-MS injection port for 5 min. (splitless), for desorption of the volatiles. Chiral separation was conducted on a Restek Rt™-bDEXsm column (30 m length 0.25 mm i.d., 0.25 μm film thickness, 2,3-di-O-methyl-6-O-tert-butyl dimethylsilyl beta cyclodextrin added into 14% cyanopropylphenyl/86% dimethyl polysiloxane). Helium (0.8 ml min-1) was used as a carrier gas with splitless injection. The injector temperature was 250° C., and the detector temperature was 230° C. The following conditions were used: initial temperature 40° C. for 5 min., followed by a ramp of 2° C./min. to 110° C., and 10° C./min up to 230° C. (5 min.). A quadrupole mass detector with electron ionization at 70 eV was used to acquire the MS data in the range of 41 to 350 m/z. The identification of the volatiles was assigned by comparison spectral data with the W10N11 and HPCH2205 GC-MS libraries and with authentic standard when available.
Molecule,net uptake of CBD into yeast cells compared to control (empty vector) yeast [1],"inhibition of yeast growth in response to CBD, transporter-expressing yeast vs control yeast [2]",Monoterpenes produced with GPP [3]
"T-AG2575-1: Cannabis ABC-G transporter gene product, amino acid SEQ ID NO: 55 (protein, ABC+PTR Transporter amino acid sequence (of the 12 identified gene products)) MEVGDLYKAGNSLRSSKGSSVWRGNNNNNNNKDEFFSKSRREDDIDDEEALTWAALEKLPTYDRLRKGILTTSKGKPTEVDVINLGSKERKDLLRRLVNVADEDNESFLLKLKQRIQTVGIELPTIEVRYENIKVEADVHVGSRALPSFINFCVNILEMLVSFLPILKSKKKHVTILDDVSGAIKPGRLTLLLGPPNSGKTTLLLTLAGKLASELKFSGRVTYNGHEMNEFIPQRTAAYISQHDVHIGEMTVRETLSFSARCQGVGTRYDMLAELSRREKEANITPDPDIDVFMKAASAEGQESSVITDYIIKILGLEGCADTMVGNEMLRGISGGQKKRVTTGEMLVGPAGALFMDEISTGLDSSTTFQIVNSLKQFAHIFEETIVISLLQPAPETYDLFDDIILLSDGQIVYQGPRENVLEFFELTGFKCPERKAIADFLQEVTSRKDQAQYWARSDQPYKFVTVNEFVEAFQSFHIGKKVVEHLSIPFDKTKSHPAALTTKPYGLNKMELLKACMSREFLLMKRNSFVHIFKIVQLGILGLISATIFLRTKMHHKTLQDGSIYLGALFFSTLMIMFNGLSEVPMTIVKLPVFYKQRDLQFFPAWAYALPSMIYKAPVAFIEVLVWMTITYYSIGFDPYFGRVVKLYVLFVIINQMASGLFRAIASIGRSMIIANTFGAFSLLLLFVLGGFVLSRDFIKGWWIWGYWISPLMYGQTGVVVNEFNGNKWKHVPPNSTETLGVQVLKARGFFTDSYWYWLGFAALSAYVVIFNFVYTLALTYLNPLEQRQAVSNENSESGDIQNDEEGEVIEMTQRPKNMGENQSKKKGMILPFEPHSICFDDVCYSVDMPQEMKGQGVVEDKLVLLKSVSGSFRPGVLTALMGVSGAGKTTLMDVLAGRKTGGYIEGDIRISGYPKKQETFARISGYCEQNDIHSPYVTVYESLLYSAWLRLPSEVDMDTRKMFIEEVMELVELVPLRQALVGLPGVNGLSTEQRKRLTIAVELVANPSIIFMDEPTSGLDARAAAIVMRTVRNTVDTGRTVVCTIHQPSIDIFEAFDELFLLKIGGEEIYVGPLGRHSCHLINYFEAIEGVSKIKEGYNPGTWMLEVSSSAQEMALGVDFANIYKNSDLYKRNKELIKELSTPAPGSKDLYFPTQFSRSLYTQCIACLWKQRQSYWRNPLYTAVRFMFTTFIALMFGTMFWDLGSKRSNKQDLTNALGSMYSAVLFIGVQNSSSVQPVVGVERTVFYREKAAGMFSAFPYTFGQVVVEIPYIICQAVVYCLIVYAMMGFEWTAVKFFWYLFFTFFSMLYFTFYGMMAVGITPNNHVASIISAAFYSIWNLFSGFIVPRTRIPIWWRWYYWGCPTAWTLYGLLVSQYGDVEDVMDAETGETVKQYLKSYFGYKHDFIGVVAMVNVFYGLLFGGIFALSIKVLNFQNR",reduced net uptake of CBD,reduced inhibition of growth,–
"799-4: Cannabis terpene synthase gene product, amino acid SEQ ID NO: 33 (protein, Terpene Synthase Gene Amino acid sequence of the 45 identified gene products) MSNIQVLASSQLSDKIIARPTTNFHPSIWGDRFLHYNISEQDLVCKEERIEELIQVVKKEILSSNHDQLKLIDNLQRLGLSHHFESEIEKLLEHLSTTHHQNHHDLHDASLCFRLLRQHGFNVSSSIFEKFKDEKGNFKGSLITDVPGLLSLYEASHLSYVGESILDEALAFTTTHLKAIVANSKDHPLSHQISIALHRPLRKTIERLHARFYISIYEKDASHNKVLLELAKLDFNLLQCFHKKELSEIMRWWKEHEFAKKFPFARDRMVEQYFWILGVYYEPKYSRARKLLTKVIALASITDDIYDAYGTIDELELLTKAMQRWDITCMDKLEPEYLKTYYKAMLDSYEEFEKELKKEELYKLEYAKEEMKRIIGAYFEEARWLSEGYFPSLDEHLKVSYVSCGYVLLIATSYVGMYDIVTHETLNWLSKDPKIVSASTLLARFMDDIGSRKFEQKRNHIPSTVDCYMKQYEVSEEEAIKELNKRVDTHWKEINEDFIRPTVVPFPILVRVLNFTKTVDLLYKEGDDQYTNVGKVLKESIAALLIDSIPL",–,–,myrcene
"AG3403-2: Cannabis terpene synthase gene product, amino acid SEQ ID NO: 40 (protein, Terpene Synthase Gene Amino acid sequence of the 45 identified gene products) MHCITLKHQISPLLPNICSTTNFGVFFRPKLYTNYNIINNATKSRLSSACYPIQCAVVNSSNAIIDRRSANFEPSIWSFDYIQSLTSQYKGEPYTSRVKKLERDVKKILVEMENSLAQLELIDTLQRLGISYRFENEINSILNKKYVNINNPNYNLYAIALQFRLLRQHGYAVPQEIFNQLKDEIENIKKNINGNDIMGILALYEASFYEKKGESILKEARIFTTKCLKNYTIMISEQKKLLIDNDYDYDIEVVNHALELPLHRRTTRTEAKWFIDAYAKKQDMNPMLLELAKLNFNTVQSTHHEDLKHIFRWWRHTKLGEKLNFARDRLMECFLWNIGIRFESKFSYFRTKTAKLFELVTFIDDIYDVYGTLDELELFTKAVERWDVKMINELPEYMKMPYLVLHNTINDMVFEVLRDQEISINIQYLKKTWVDMCKSFLQEAKWYYSGYTPTLEEYIENGWISVGAPVILVHAYFFHANNNRTITNTKEIFECLEHGYYPAIIRHSAIILRFTNDLTTSSEELKRGDAPTSIQCYMQEKNVSEEEAREHIKFLINEAWKEMNNDVGLYPISLTEDATNFAKMGFFIYQHGDGHSSQDNQSKQKISSLIIEPIPLYT",–,–,beta-myrcene and geraniol
